Data: PMC13038408

Target: RSV90 IgG (human)
Assay: SPR

Chain of RSV90 IgG (human) (heavy, as listed by the source, chain 1 of 2): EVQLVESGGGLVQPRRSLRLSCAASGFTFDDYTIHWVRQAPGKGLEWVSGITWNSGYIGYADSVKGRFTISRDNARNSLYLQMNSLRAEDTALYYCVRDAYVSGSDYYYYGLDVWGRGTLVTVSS
Chain of RSV90 IgG (human) (light, as listed by the source, chain 2 of 2): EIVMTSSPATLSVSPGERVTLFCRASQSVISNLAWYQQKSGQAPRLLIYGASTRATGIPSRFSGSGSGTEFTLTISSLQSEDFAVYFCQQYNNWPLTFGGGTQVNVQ

Binder | Kd
RSVF-multi-4 (designed binder) MKLVIARVKSPKVKRLSEEDIEKIKSALKSTNKAVVTIKDENGEEIEVEVRLLTLEEALKYINDLPISNDAKKLMSNNIHKALEPGRTVVFGPEGCEERDKNRGIIKTFSTDVKLDETYFFFRVE | > 10 µM
RSVF-multi-3 (designed binder) DDLVDIFLRAFAKAAKVTRFDKNRGIIKTFSEEETEKLFKSLTEEEVEKIESALKSTNKAVVVLGDGDIEIEIDLDKLYALINDLDISNDQKKEMSNNFFEYLRKIAKK | > 10 µM
